From paper PMC3878821 come the findings set out here.

Substrate in the data set: Nc1ncnc2c1ncn2[C@@H]1O[C@H](COP(=O)(O)OP(=O)(O)OP(=O)(O)O)[C@@H](O)[C@H]1O
In words: in vitro enzymatic assay, Km app for ATP. The class given is biochemical, Homo sapiens. Conditions: ATP-binding site.

Where a chain is given by its changes, count along the chain named. Numbers in names are those of the source.

B1: ROS1 kinase domain G2032R mutant (Homo sapiens; G2032R) (protein)
chain: IENLPAFPREKLTLRLLLGSGAFGEVYEGTAVDILGVGSGEIKVAVKTLKKGSTDQEKIEFLKEAHLMSKFNHPNILKQLGVCLLNEPQYIILELMEGRDLLTYLRKARMATFYGPLLTLVDLVDLCVDISKGCVYLERMHFIHRDLAARNCLVSVKDYTSPRIVKIGDFGLARDIYKNDYYRKRGEGLLPVRWMAPESLMDGIFTTQSDVWSFGILIWEILTLGHQPYPAHSNLDVLNYVQTGGRLEPPRNCPDDLWNLMTQCWAQEPDQRPTFHRIQDQLQLFRNFFLNSIYKSRDE
Turning to B1, the Km – broadly, the substrate concentration at which the rate is half of its maximum – was 22 µM.

B2: ROS1 kinase domain (nonmutant) (Homo sapiens) (protein)
chain: B1 chain with R99G
As to B2, the Km stood at 65 µM.
